Source: article PMC2739136

Key:
Experiment in all cases: pull-down
MBP-TraR V146E, P33905 = target: T1, MBP-TraR V146E, P33905
T1 chain: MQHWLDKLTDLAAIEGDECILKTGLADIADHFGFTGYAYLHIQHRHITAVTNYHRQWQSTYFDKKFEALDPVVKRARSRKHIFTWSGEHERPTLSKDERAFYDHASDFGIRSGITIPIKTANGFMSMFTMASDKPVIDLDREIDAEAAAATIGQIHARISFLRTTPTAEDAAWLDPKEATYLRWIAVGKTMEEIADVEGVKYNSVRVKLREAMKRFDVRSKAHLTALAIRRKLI

MBP-TraR S160A, P33905 = target: T2, MBP-TraR S160A, P33905
T2 chain: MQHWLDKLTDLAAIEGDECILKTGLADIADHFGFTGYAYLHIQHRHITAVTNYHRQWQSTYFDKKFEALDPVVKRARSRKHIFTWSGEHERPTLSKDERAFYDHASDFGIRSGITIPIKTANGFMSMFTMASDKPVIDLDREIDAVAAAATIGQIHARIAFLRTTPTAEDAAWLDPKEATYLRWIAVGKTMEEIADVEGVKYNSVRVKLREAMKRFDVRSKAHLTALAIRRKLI

MBP-TraR A149E, P33905 = target: T3, MBP-TraR A149E, P33905
T3 chain: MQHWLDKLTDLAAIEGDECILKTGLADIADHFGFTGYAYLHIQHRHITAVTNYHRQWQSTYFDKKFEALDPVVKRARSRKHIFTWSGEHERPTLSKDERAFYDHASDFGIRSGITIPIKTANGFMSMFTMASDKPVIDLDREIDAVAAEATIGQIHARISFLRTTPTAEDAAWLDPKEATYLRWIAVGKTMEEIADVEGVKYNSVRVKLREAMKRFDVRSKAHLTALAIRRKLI

MBP-TraR F161K, P33905 = target: T4, MBP-TraR F161K, P33905
T4 chain: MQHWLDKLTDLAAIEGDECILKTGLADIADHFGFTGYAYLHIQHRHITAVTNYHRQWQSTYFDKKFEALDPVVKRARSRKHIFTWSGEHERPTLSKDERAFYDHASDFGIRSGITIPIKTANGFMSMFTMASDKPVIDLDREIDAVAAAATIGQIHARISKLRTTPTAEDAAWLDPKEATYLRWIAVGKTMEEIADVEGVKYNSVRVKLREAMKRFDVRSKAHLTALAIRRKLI

MBP-TraR K119A, P33905 = target: T5, MBP-TraR K119A, P33905
T5 chain: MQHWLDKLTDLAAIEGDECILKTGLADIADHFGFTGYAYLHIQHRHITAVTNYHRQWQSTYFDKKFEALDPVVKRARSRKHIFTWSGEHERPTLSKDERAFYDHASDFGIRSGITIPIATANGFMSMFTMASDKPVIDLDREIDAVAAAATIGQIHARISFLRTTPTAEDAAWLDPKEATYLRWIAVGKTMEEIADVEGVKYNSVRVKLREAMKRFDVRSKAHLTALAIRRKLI

MBP-TraR V146A, P33905 = target: T6, MBP-TraR V146A, P33905
T6 chain: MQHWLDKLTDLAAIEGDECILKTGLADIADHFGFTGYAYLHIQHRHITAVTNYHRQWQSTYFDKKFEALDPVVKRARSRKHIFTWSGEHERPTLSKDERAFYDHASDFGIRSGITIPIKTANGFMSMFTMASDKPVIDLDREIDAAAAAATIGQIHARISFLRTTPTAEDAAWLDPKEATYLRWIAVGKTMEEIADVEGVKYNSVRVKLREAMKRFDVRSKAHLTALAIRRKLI

MBP-TraR Q154A, P33905 = target: T7, MBP-TraR Q154A, P33905
T7 chain: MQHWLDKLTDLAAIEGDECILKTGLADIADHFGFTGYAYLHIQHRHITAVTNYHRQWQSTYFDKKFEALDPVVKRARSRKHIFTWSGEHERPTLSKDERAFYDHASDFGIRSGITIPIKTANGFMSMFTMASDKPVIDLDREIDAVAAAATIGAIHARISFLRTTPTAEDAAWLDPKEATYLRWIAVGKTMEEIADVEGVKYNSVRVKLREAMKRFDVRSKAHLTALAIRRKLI

MBP-TraR A157E, P33905 = target: T8, MBP-TraR A157E, P33905
T8 chain: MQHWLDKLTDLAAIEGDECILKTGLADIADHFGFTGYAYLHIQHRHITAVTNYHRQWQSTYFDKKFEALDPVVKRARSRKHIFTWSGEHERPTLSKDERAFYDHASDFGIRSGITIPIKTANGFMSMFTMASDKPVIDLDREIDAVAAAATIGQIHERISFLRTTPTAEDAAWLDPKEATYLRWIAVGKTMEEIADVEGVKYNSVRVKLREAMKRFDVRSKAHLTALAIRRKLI

B1: native TraR (wild type) (protein)
chain: MQHWLDKLTDLAAIEGDECILKTGLADIADHFGFTGYAYLHIQHRHITAVTNYHRQWQSTYFDKKFEALDPVVKRARSRKHIFTWSGEHERPTLSKDERAFYDHASDFGIRSGITIPIKTANGFMSMFTMASDKPVIDLDREIDAVAAAATIGQIHARISFLRTTPTAEDAAWLDPKEATYLRWIAVGKTMEEIADVEGVKYNSVRVKLREAMKRFDVRSKAHLTALAIRRKLI
MBP-TraR V146E, P33905
  heterodimer formation (% of wild type) (% of wild type): 52
MBP-TraR S160A, P33905
  heterodimer formation (% of wild type) (% of wild type): 100
MBP-TraR A149E, P33905
  heterodimer formation (% of wild type) (% of wild type): 12
MBP-TraR F161K, P33905
  heterodimer formation (% of wild type) (% of wild type): 39
MBP-TraR K119A, P33905
  heterodimer formation (% of wild type) (% of wild type): 94
MBP-TraR V146A, P33905
  heterodimer formation (% of wild type) (% of wild type): 61
MBP-TraR Q154A, P33905
  heterodimer formation (% of wild type) (% of wild type): 27
MBP-TraR A157E, P33905
  heterodimer formation (% of wild type) (% of wild type): 48
